Reference: patent publication US20220403023A1 (WUXI BIOLOGICS IRELAND, published 2022)

Legend:
HER3.his [1] = target: T1, HER3.his (Homo sapiens (Human), UniProt P21860 20-643); assay: non-specific binding ELISA, protein coated 1 µg/mL, lead antibody at 10 ug/ml
Description: (§1) The 96-well high binding plates were coated with 14 different proteins at 1 μg/mL at 4° C. overnight and blocked with 2% BSA-PBS for 1 hr. […] Then the Goat anti-human IgG-Fc-HRP secondary antibody was added and incubated for 1 hr. The TMB peroxidase substrate solution was added and then reaction was stopped after 12 minutes using 2M HCl. All incubation steps were performed at room temperature, and the plates were washed 5 times with PBST at pH 7.4 between steps. The absorbance of testing samples was measured at 450 nm with a multiwall plate reader (SpectraMax® M5e).

CTLA4.his = assay: as above
Description: as §1

CD22.his = assay: as above
Description: as §1

4-1B8.his = assay: as above
Description: as §1

FGFR.his = assay: as above
Description: as §1

VEGFR2.his = assay: as above
Description: as §1

PD-1.his [2] = target: T2, PD-1.his (Homo sapiens (Human), UniProt Q15116 25-170); assay: as above
Description: as §1

HSA. [3] = target: T3, HSA. (UniProt P02768 25-609); assay: as above
Description: as §1

CD147.his = assay: as above
Description: as §1

Factor Eight = assay: as above
Description: as §1

OX40.his = assay: as above
Description: as §1

CD40.his = assay: as above
Description: as §1

CD3.his = assay: as above
Description: as §1

VEGF.his = assay: as above
Description: as §1

human CD47 ECD protein [4] = target: T4, human CD47 ECD protein (human, UniProt Q08722 19-139, limits assumed); assay: competition ELISA: plate-coated human CD47 ECD (1 µg/mL), antibody titrated together with human SIRPα-His (1 µg/mL), bound SIRPα detected with anti-His-HRP
T4 construct: extracellular domain; The assays say only 'human CD47 ECD protein' / 'Human CD47 protein'; 55 kDa was used as molecular weight in SPR; also called human CD47 protein; W345-hPro1.ECD (sino)
Description: 96-well plates were coated with human CD47 ECD at 1 μg/mL at 4° C. overnight and blocked with 2% BSA-PBS for 1 hr. […] The TMB peroxidase substrate solution was added and then reaction was stopped after 12 minutes using 2M HCl. All incubation steps were performed at room temperature, and the plates were washed with PBST between steps. The absorbance of the testing samples was measured at 450 nm with a multiwall plate reader. The competitive binding IC50s were calculated by using GraphPad Prism software equation: Nonlinear regression (curve fit)—log (antagonist) vs. response—Variable slope.

[5] = target: T5, cynomolgus monkey CD47 on engineered CHO-K1 cells (cynomolgus monkey, UniProt A0A5F8AK49 19-323 (rhesus entry)); assay: FACS on CHO-K1 cells expressing cynomolgus CD47 (CHOK1-cynoCD47), goat anti-human IgG-Fc PE
T5 construct: whole, on cells; also called cyno CD47 expressing cells; cynomolgus monkey CD47-expressing cells
Description: (§2) Briefly, the engineered CD47-expressing cells were coated into 96-well U-bottom plates at a density of 1×10⁵ cells/well and centrifuged at 1500 rpm at 4° C. for 4 min before removing the supernatant. […] The cells were washed twice with 180 μL 1% BSA-PBS. The secondary antibody, Goat Anti-human IgG-Fc PE was added to re-suspend cells and incubated at 4° C. in the dark for 30 min followed by washing with 180 μL 1% BSA-PBS. At the end, the cells were re-suspended in 100 μL 1% BSA-PBS, and the fluorescence intensity was measured by FACS (BD Canto II) and analyzed by FlowJo Version software. The binding EC50s were calculated by using GraphPad Prism software equation: Nonlinear regression (curve fit)—log (agonist) vs. response—Variable slope.

HER3.his [6] = target: T1, HER3.his; assay: ELISA, protein coated at 1 µg/mL
PD-1.his [7] = target: T2, PD-1.his; assay: ELISA, protein coated at 1 µg/mL
HSA. [8] = target: T3, HSA.; assay: ELISA, protein coated at 1 µg/mL
[9] = target: T6, human CD47 on engineered CHO-K1 cells (human, UniProt Q08722 19-323); assay: FACS on CHO-K1 cells expressing human CD47 (CHOK1-huCD47), goat anti-human IgG-Fc PE
T6 construct: whole, on cells; also called human CD47-expressing cells
Description: as §2

human CD47 ECD protein [10] = target: T4, human CD47 ECD protein; assay: ELISA on plate-coated human CD47 ECD (1 µg/mL), goat anti-human IgG-Fc-HRP, OD450
Description: Then the Goat anti-human IgG-Fc-HRP secondary antibody was added and incubated for 1 hr. […] All incubation steps were performed at room temperature, and the plates were washed 5 times with PBST at pH 7.4 between steps.

human CD47 ECD protein [11] = target: T4, human CD47 ECD protein; assay: SPR Biacore T200, antibody captured on anti-human IgG Fc chip, human CD47 as analyte, 1:1 model
Description: Each antibody was captured on an anti-human IgG Fc antibody immobilized CMS sensor chip (GE). Human CD47 protein at different concentrations were injected over the sensor chip at a flow rate of 30 uL/min for an association phase of 180 s, followed by 3600 s dissociation. The chip was regenerated by 10 mM glycine (pH 1.5) after each binding cycle. The sensorgrams of blank surface and buffer channel were subtracted from the test sensorgrams. The experimental data was fitted by 1:1 model using Langmiur analysis. Molecular weight of 55 kDa was used to calculate the molar concentration of analyte antigen.

[12] = target: T6, human CD47 on engineered CHO-K1 cells; assay: competition FACS: CHO-K1 cells expressing human CD47, antibody titrated together with human SIRPα-His (1 µg/mL), bound SIRPα detected with anti-His-biotin and streptavidin-PE
Description: At the end, the cells were re-suspended in 100 μL 1% BSA-PBS, and the fluorescence intensity was measured by FACS (BD Canto II) and analyzed by FlowJo Version software. The competitive binding IC50s were calculated by using GraphPad Prism software equation: Nonlinear regression (curve fit)—log (antagonist) vs. response—Variable slope.

[13] = target: T7, CD47 on human red blood cells (human, UniProt Q08722 19-323); assay: FACS on human red blood cells, goat anti-human IgG-Fc PE
T7 construct: whole, on cells; also called human RBCs; hRBC
Description: The cells were washed twice with 180 μL 1% BSA-PBS. The secondary antibody, Goat Anti-human IgG-Fc PE was added to re-suspend cells and incubated at 4° C. in the dark for 30 min followed by washing with 180 μL 1% BSA-PBS. At the end, the cells were re-suspended in 100 μL 1% BSA-PBS, and the fluorescence intensity was measured by FACS (BD Canto II) and analyzed by FlowJo Version software. The binding EC50s were calculated by using GraphPad Prism software equation: Nonlinear regression (curve fit)—log (agonist) vs. response—Variable slope.

T2 sequence (Q15116 25-170 limits assumed): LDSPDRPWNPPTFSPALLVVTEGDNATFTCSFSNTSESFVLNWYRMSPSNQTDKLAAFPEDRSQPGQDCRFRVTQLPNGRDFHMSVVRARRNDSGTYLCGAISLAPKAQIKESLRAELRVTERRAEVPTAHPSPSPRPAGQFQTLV
Sequence of CD40.his (P25942 21-193): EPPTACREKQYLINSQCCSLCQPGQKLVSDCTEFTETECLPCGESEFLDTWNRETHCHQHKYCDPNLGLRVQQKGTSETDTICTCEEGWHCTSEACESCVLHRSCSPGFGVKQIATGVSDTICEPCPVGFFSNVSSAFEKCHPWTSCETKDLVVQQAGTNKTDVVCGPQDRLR
Sequence of VEGF.his (P15692 whole entry): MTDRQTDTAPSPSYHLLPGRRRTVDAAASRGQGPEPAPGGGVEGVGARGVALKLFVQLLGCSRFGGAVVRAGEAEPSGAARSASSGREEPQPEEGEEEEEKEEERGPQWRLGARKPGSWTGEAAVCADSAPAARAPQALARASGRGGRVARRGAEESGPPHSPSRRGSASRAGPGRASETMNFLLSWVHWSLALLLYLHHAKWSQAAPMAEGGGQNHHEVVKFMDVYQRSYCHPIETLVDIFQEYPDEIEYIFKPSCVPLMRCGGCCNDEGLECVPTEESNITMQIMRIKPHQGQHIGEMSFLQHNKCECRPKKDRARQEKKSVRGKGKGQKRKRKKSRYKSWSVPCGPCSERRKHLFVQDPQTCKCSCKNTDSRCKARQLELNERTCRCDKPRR
Sequence of OX40.his (P43489 29-214): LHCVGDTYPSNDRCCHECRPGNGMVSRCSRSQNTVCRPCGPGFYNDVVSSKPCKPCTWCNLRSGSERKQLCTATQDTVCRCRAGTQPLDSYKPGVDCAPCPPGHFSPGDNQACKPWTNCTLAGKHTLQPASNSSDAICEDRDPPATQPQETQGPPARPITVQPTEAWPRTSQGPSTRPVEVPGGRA
Sequence of VEGFR2.his (P35968 20-764): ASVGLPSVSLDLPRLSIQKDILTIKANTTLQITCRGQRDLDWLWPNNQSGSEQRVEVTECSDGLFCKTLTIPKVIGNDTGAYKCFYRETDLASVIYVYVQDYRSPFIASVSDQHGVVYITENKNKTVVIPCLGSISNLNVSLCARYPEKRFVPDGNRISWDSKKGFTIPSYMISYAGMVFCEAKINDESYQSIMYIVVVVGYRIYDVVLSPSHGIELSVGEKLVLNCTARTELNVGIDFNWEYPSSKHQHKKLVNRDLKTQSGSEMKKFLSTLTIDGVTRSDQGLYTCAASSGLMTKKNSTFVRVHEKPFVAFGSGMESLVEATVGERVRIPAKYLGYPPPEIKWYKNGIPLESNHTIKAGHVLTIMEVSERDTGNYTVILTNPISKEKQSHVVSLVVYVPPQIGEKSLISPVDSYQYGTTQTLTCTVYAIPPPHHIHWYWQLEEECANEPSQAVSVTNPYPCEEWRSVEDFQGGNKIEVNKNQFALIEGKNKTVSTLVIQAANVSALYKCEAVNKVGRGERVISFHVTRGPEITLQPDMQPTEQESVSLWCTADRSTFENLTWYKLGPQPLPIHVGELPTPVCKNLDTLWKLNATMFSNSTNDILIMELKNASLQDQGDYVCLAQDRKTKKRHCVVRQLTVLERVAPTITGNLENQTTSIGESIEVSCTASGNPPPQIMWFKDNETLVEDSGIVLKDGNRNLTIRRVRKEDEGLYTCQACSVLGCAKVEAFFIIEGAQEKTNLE
Sequence of 4-1B8.his (Q07011 24-186): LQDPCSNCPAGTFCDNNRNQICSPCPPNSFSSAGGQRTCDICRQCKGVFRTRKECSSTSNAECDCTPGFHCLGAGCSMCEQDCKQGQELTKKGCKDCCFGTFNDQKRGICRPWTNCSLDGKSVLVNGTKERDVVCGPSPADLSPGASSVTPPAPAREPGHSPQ
Sequence of CTLA4.his (P16410 36-161): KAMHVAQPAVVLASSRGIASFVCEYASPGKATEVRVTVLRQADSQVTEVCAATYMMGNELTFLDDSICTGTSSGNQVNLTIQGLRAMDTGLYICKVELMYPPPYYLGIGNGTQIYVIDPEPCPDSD

B1: W3455-4.9.9-uIgG4.SPL (antibody, V domains shown)
VH: EVQLLESGGGLVQPGGSLRLSCAASGFTFSNFAMSWVRQAPGKGLEWVSTISASGGRTFYADSVKGRITISRDNSKNTLFLQMNGLRAEDTAVYYCAKEGSFGEGVDPWGQGTLVTVSS
VL: SYEMTQPPSVSVSPGQTARITCSGDALPKKYAYWYQQKSGQAPVLVIYEDNKRPSGIPERFSGSSSGTMATLTISGAQVEDEADYYCYSTDISGNHWVFGGGTELTVLG
notes: Fully human anti-CD47 antibody; also called W3455 antibody; WBP3455-4.9.9-uIgG4.SPL
Binder B1 has an ELISA-OD450 (HER3.his [1]) of 0.0462, an ELISA-OD450 (CTLA4.his) of 0.0573 and an ELISA-OD450 (CD22.his) of 0.0478. It also gave an ELISA-OD450 (4-1B8.his) of 0.0551, an ELISA-OD450 (FGFR.his) of 0.138 and an ELISA-OD450 (VEGFR2.his) of 0.0452. It also gave an ELISA-OD450 (PD-1.his [2]) of 0.227, an ELISA-OD450 (HSA. [3]) of 0.324 and an ELISA-OD450 (CD147.his) of 0.0463. It also gave an ELISA-OD450 (Factor Eight) of 0.0498, an ELISA-OD450 (OX40.his) of 0.0487 and an ELISA-OD450 (CD40.his) of 0.209. The ELISA-OD450 (CD3.his) was 0.0527, the ELISA-OD450 (VEGF.his) was 0.0475 and the IC50 (human CD47 ECD protein [4]) was 3.21 nM. The EC50 [5] was 2.71 nM, the binding result (HER3.his [6]) was “no binding (tested: 10 ug/ml)” and the binding result (PD-1.his [7]) was “no binding (tested: 10 ug/ml)”. For the same binder, the binding result (HSA. [8]) was “no binding (tested: 10 ug/ml)”, the EC50 [9] was 2.99 nM and the EC50 (human CD47 ECD protein [10]) was 0.038 nM. For the same binder, the Kd (human CD47 ECD protein [11]) was 0.0223 nM, the koff (human CD47 ECD protein [11]) was 2.34e-05 s⁻¹ and the kon (human CD47 ECD protein [11]) was 1.05e+06 M⁻¹ s⁻¹. For the same binder, the IC50 [12] was 20.1 nM and the EC50 [13] was 76.7 nM.
